{"source": "patent US20250236667A1", "about": "“ANTIBODIES TO MUTANT CALRETICULIN AND USES THEREOF” (CENTRAL ADELAIDE LOCAL HEALTH NETWORK INC, priority 2021, published 2025)", "type_in_all_cases": "cell-based, human", "key": {"[1]": {"test_system": "wild type TF-1 TpoR expressing cells", "experiment": "Flow cytometry of 4D7 binding to the cell surface, wild type cells", "conditions": "PE-conjugated 4D7; wild type TF-1 TpoR cells"}, "[2]": {"test_system": "phospho-STAT1,3,5 and phospho-ERK in TF-1 TpoR CALR^del52 cells", "experiment": "Western blot of STAT/ERK signalling", "conditions": "10 or 20 μg/mL; 8 hours", "method": "(§1) A. Cell extracts blotted for phospho-STAT5, total STAT5, phospho-ERK, total ERK and actin from TF-1 TpoR cells after incubation with 10 or 20 μg/mL 4D7 or IgG for 4 or 8 hours, in presence of TPO. The last line indicates TPO withdrawal. B. Similar experiment using TPO-independent TF-1 TpoR CALR^del61 cells. C. Similar experiment using TPO-independent TF-1 TpoR CALR^del52 cells at 8 hours. D. Fraction of apoptotic sub-Go population of TF-1 TpoR CALR^del61 cells after 48 hours of 4D7 or IgG treatment (n=3). E. Western blot showing caspase 3 cleavage occurring within 24 hours of TPO withdrawal in TPO dependent TF-1 TpoR cells. An increase in cleaved caspase 3 is observed after 48 hours of treatment with 20 μg/mL 4D7 in TF-1 TpoR CALR^del61 and TF-1 TpoR CALR^del52 cells. F. Western blot of TpoR immunoprecipitation under non-reducing conditions showing associated CALR 50 kDa monomers and 100 kDa dimers (arrowheads) present only in TF-1 TpoR CALR^del61 disrupted by 8 hour treatment with 20 μg/mL 4D7 but not PBS or 20 μg/mL IgG. CALR monomers & dimers are detectable by polyclonal anti-wild type CALR or anti-mutant CALR monoclonal antibodies. Arrowheads, detected mutant CALR protein: asterisk, non-specific bands. G. Proposed model for the mechanism of action of 4D7 on mutant CALR. In the active form, mutant CALR dimers bound to TpoR form a constitutively activate receptor complex which is disrupted by 4D7 with blockade in STAT and ERK signalling. (Adapted from Masubuchi et al. (2020), Rivera et al (2021)). […]\n(§2) A. Cell extracts blotted for phospho-STAT1, total STAT1, phospho-STAT3, total STAT3 and actin from TF-1 TpoR cells after incubation with 10 or 20 μg/mL 4D7 or IgG for 4 or 8 hours as indicated. […] Cells were harvested and fixed and stained with propidium iodide and their DNA contents were analysed. […] E. Western blot showing specific co-immunoprecipitation of mutant CALR^del61 cells with TpoR anti-FLAG antibody under reducing conditions detected by total and mutant specific CALR antibodies. Arrowheads represent detected CALR protein. […]"}, "[3]": {"test_system": "phospho-STAT1,3,5 and phospho-ERK in TF-1 TpoR CALR^del61 cells", "experiment": "Western blot of STAT/ERK signalling", "conditions": "10 or 20 μg/mL; 4 and 8 hours", "method": "as §1, §2"}, "[4]": {"test_system": "phospho-STAT1,3,5 and phospho-ERK in TF-1 cells expressing TpoR alone", "experiment": "Western blot of STAT/ERK signalling", "conditions": "10 or 20 μg/mL for 4 or 8 hours, in presence of TPO", "method": "as §1, §2"}, "[5]": {"test_system": "TF-1 TpoR CALR^del61 cells", "experiment": "Cell cycle analysis by flow cytometry (propidium iodide)", "conditions": "20 μg/mL, 48 hours; P=0.001", "method": "Cell cycle analysis was carried out by flow cytometry. Briefly, TF-1 TpoR and TF-1 TpoR CALR^del61 cells were seeded at a concentration of ˜2×10^5 per well in triplicate under standard culture conditions, with the addition of 20 μg/mL IgG or 4D7. Cells were treated for 48 hours and were fixed by 70% (v/v) ethanol at 4° C. overnight. Fixed cells were rinsed twice with PBS and stained with 50 μg/mL propridium iodide (PI: ThermoFisher)+100 μg/mL RNAse A (QIAGEN). Cells were incubated for 30 minutes at RT in the dark and analysed on the BD FACSCantoII (BD Biosciences)."}}}
{"molecule": "4D7: rat monoclonal IgG2a antibody against the mutant CALR neoepitope; VH SEQ ID NO: 5, VL SEQ ID NO: 7 (antibody, listed as Rattus rattus, V domains shown) VH: QVQLQQSGAELAKPGSSVKISCKASGYTFTNYDMSWIKQRPGQALEWIGAINPGNGVTDYNEKFRGKATLTVDKSSSTAFMQLSSLTPEDTAVYHCAREYRDNYGYFDYWGQGVMVTVSS VL: DIVLTQTPVSLSVTLGDQASISCRSSQSLEYSDGYTYLDWFLQKPGQSPQLLIYEVSSRFSGVPDRFIGRGSGTDFTLKISRVEPEDLGVYYCFQATHDPFTFGSGTKLEIK", "values": [{"measurement": "binding to the cell surface", "setting": "[1]", "value": "but not wild type TF-1 TpoR expressing cells"}, {"measurement": "constitutive factor-independent phospho-STAT1,3,5 and phospho-ERK", "setting": "[2]", "value": "blockade"}, {"measurement": "constitutive factor-independent phospho-STAT1,3,5 and phospho-ERK", "setting": "[3]", "value": "blockade"}, {"measurement": "inhibition of signalling", "setting": "[4]", "value": "no inhibition of signalling"}, {"measurement": "sub-Go fraction compared to IgG control", "setting": "[5]", "value": "significant increase"}]}
